The values that follow come from patent publication US11781164B2, “Demethylation of reticuline and derivatives thereof with fungal cytochrome P450” (priority 2017, dated 2023).

In data set [1] the test system is oripavine. Kind of data set: In vitro N-demethylation of oripavine by mammalian cytochrome P450s in crude yeast cell lysates. Particulars: crude cell extract with human CPR and cytochrome b5; 0.2 mM substrate, pH 7, 30° C., approximately 20 hours; compared to negative control strain without cytochrome P450s.
In another data set the test system is codeine. Description: In vitro N-demethylation of codeine by mammalian cytochrome P450s in crude yeast cell lysates. Particulars: crude cell extract with human CPR and cytochrome b5; 0.2 mM substrate, pH 7, 30° C., approximately 20 hours; compared to negative control strain without cytochrome P450s.
In data set [2] the test system is thebaine. Kind of data set: In vitro N-demethylation of thebaine by mammalian cytochrome P450s in crude yeast cell lysates. The note with it: crude cell extract with human CPR and cytochrome b5; 0.2 mM substrate, pH 7, 30° C., approximately 20 hours; compared to negative control strain without P450s.
For the next data set, the system named is salutaridine. Kind of data set: In vitro N-demethylation of salutaridine by mammalian cytochrome P450s in crude yeast cell lysates. Particulars: crude cell extract with human CPR and cytochrome b5; 0.2 mM substrate, pH 7, 30° C., approximately 20 hours; compared to negative control strain without cytochrome P450s.
For data set [3], the system named is oripavine. Description: Bioconversion of oripavine (N-demethylation to nororipavine) by S. cerevisiae expressing cytochrome P450s and CPRs, LC-MS. Particulars: 0.5 mM oripavine, pH 7, 72 h; for nororipavine production when oripavine was administered: co-expressed with CPR_DN5866_c0_g1_i1_Cd9, CPR_DN10898_c0_g1_i1_1A or Cel_CPR_co.
Data set [4] deals with thebaine. Kind of data set: Bioconversion of thebaine (N-demethylation to northebaine) by S. cerevisiae expressing cytochrome P450s and CPRs, LC-MS. Particulars: 0.5 mM thebaine, pH 7, 72 h; for activity towards thebaine, converting it to northebaine: co-expressed with CPR_DN5866_c0_g1_i1_Cd9, CPR_DN10898_c0_g1_i1_1A or Cel_CPR_co (at least one of the tested CPRs).
The subject of data set [5] is thebaine. Kind of data set: In planta conversion of thebaine by transient expression of demethylases and CPRs in Nicotiana benthamiana leaves. The note with it: co-expressed with CPR_DN10898_c0_g1_i1_co or Cel_CPR_co; leaves re-infiltrated with 0.5 mM thebaine after 4 days, measured 1 day after.

As to “Hs_CYP3A4: Cytochrome P450 3A4 (P08684), Homo sapiens”, the “in vitro N-demethylation activity on oripavine” value in the data set with oripavine [1] is reported as “detected”. In addition, the “in vitro N-demethylation activity on codeine” value in the data set on codeine is listed as “detected”. Also, the “in vitro N-demethylation activity on Thebaine” value in the data set with thebaine [2] is given as “detected”. Further, the “in vitro N-demethylation activity on salutaridine” value with salutaridine is on record as “detected”.

B1: P450_DN5615_c2 g1_i9_co: codon-optimized cytochrome P450 candidate from Cunninghamella echinulata (protein, listed as Cunninghamella echinulata)
chain: MSQFISTISQYWDVNNFIDQQAWSRFYETYLLKYTDSKAKRLTIGVSVSLLLLGYGIKRLLTPPKHLRHIKHASFLRFTYNFVIKGVTPKEMHTTVSKKIVEENNGFYLQLERTGWVVYVANPEAVKQVLLKSDIFPKMDFSKLASEEGSYFEKFIGFKNILMTTGSEWLKHRKLTNPAFHRSLPAKLFGETAQGLFKIWDNEYNDKPFEVNIHNMNERITLDIIGKAGFAFDFNAVADEKSPWKKTYDIINTAASDPLFFMFPILENKLLWLFPKRQESFKKLDEWKAMLTSVIENKRRLLKDNIDQGVEEAEKDLLTLMIESEFRGEGVLTKEELIGNLTVFFLAGHDTTSFALTSAIYYMARYPEIQEKARQEVNSILCPNGEPNEGILPTIEDTKKLVYLNQIMKESMRIGNPVLFLLSPRQATKDFNLNGTFIPKGTQVNINIHDLHHSSNVWDDPDTFNPDRFAPGGEADKKTGIAWVPFSNGSRQCLGMNFSLLEQRVILSCLLRKYEWTLPENSIHKNDMISKFDLIPSPIDMKIRFERRY
modifications: codon-optimized
With B1, the “demethylase activity towards oripavine (nororipavine), C. echinulata P450 candidates” value in the data set with oripavine [3] (co-expressed with Cel_CPR) is “displayed demethylase activity towards thebaine and oripavine”. Moreover, the “demethylase activity towards thebaine (northebaine), C. echinulata P450 candidates” value with thebaine [4] (co-expressed with Cel_CPR) is “displayed demethylase activity towards thebaine and oripavine”.

B2: Ps_CODM_co: O-demethylase D4N502 from Papaver somniferum, codon optimized; positive control (protein, listed as Papaver somniferum)
chain: METPILIKLGNGLSIPSVQELAKLTLAEIPSRYTCTGESPLNNIGASVTDDETVPVIDLQNLLSPEPVVGKLELDKLHSACKEWGFFQLVNHGVDALLMDNIKSEIKGFFNLPMNEKTKYGQQDGDFEGFGQPYIESEDQRLDWTEVFSMLSLPLHLRKPHLFPELPLPFRETLESYLSKMKKLSTVVFEMLEKSLQLVEIKGMTDLFEDGLQTMRMNYYPPCPRPELVLGLTSHSDFSGLTILLQLNEVEGLQIRKEERWISIKPLPDAFIVNVGDILEIMTNGIYRSVEHRAVVNSTKERLSIATFHDSKLESEIGPISSLVTPETPALFKRGRYEDILKENLSRKLDGKSFLDYMRM
modifications: codon-optimized
With B2, in the data set with thebaine [5], the “conversion of thebaine into oripavine in N. benthamiana leaves vs negative control” value is recorded as “capable of converting thebaine into oripavine” and the “northebaine levels in N. benthamiana leaves vs negative P19 control” value is given as “not apparent”.

B3: LCOR_01865_co: codon-optimized putative cytochrome P450 A0A068RKI7 from Lichtheimia corymbifera (protein, listed as Lichtheimia corymbifera)
chain: MTEIKDHIYRYRHYIGVAAAVLLVCQQVYHRIFRIPKNLRHLPAIPYGKQLKALQSQENLISRTQRLVFPLLPKAHGVYLNRMPFQWTIYVADPEIARIVFFKPEFANKTSSVLDSIDQNTTLIEFVGNDNVSIVNGHHWKDQRKIMNPAFHRATPVGMFGSLMPKVFRLVEEQPTVPVLELMQKLTLDALGKSVFGFDFGGLDDPDSVWVKTYRLLFDGFTNVIPLVFPRLDGLYRYFSAKRRAQHDAVYKLIDLLDGVADKKRSMLQDDSNSHNDVPEHEKDLLQLMLEAELRGEGNWTKKELRHNMAIFFVAGHDTTSHALTFCLYLLAMNQDIQKKAREEILRVLGDEPKDVFPTLEDCKKLDYLDMVIKESMRIYPPANDILARDVHEDLNVKGIFIPKGAMVSVDIQALHHRPDLWHEPEKFNPDRFLPGGEHDSHEGIAYAPFSSGARQCIALKFSIMQQRVVLAMLLRKFEWELPKESKHKDGIQFEIPFNLAPKDLELIFHKRY
modifications: codon-optimized
Turning to B3, the “nororipavine production when oripavine was administered” value in the data set on oripavine [3] was “capable of producing nororipavine”. Besides, the “activity towards thebaine, converting it to northebaine” value in the data set with thebaine [4] was “displayed activity towards thebaine”.

B4: Hs_CYP3A5: Cytochrome P450 3A5 (P20815), Homo sapiens (protein, UniProt P20815 1-502, looked up)
Cytochrome P450 3A5: MDLIPNLAVETWLLLAVSLVLLYLYGTRTHGLFKRLGIPGPTPLPLLGNVLSYRQGLWKFDTECYKKYGKMWGTYEGQLPVLAITDPDVIRTVLVKECYSVFTNRRSLGPVGFMKSAISLAEDEEWKRIRSLLSPTFTSGKLKEMFPIIAQYGDVLVRNLRREAEKGKPVTLKDIFGAYSMDVITGTSFGVNIDSLNNPQDPFVESTKKFLKFGFLDPLFLSIILFPFLTPVFEALNVSLFPKDTINFLSKSVNRMKKSRLNDKQKHRLDFLQLMIDSQNSKETESHKALSDLELAAQSIIFIFAGYETTSSVLSFTLYELATHPDVQQKLQKEIDAVLPNKAPPTYDAVVQMEYLDMVVNETLRLFPVAIRLERTCKKDVEINGVFIPKGSMVVIPTYALHHDPKYWTEPEEFRPERFSKKKDSIDPYIYTPFGTGPRNCIGMRFALMNMKLALIRVLQNFSFKPCKETQIPLKLDTQGLLQPEKPIVLKVDSRDGTLSGE
B4: the “in vitro N-demethylation activity on oripavine” value in the data set with oripavine [1] is reported as “detected”. In the data set with codeine, the “in vitro N-demethylation activity on codeine” value is reported as “detected”. For the same molecule, in the data set on thebaine [2], the “in vitro N-demethylation activity on Thebaine” value is recorded as “detected”. Further, the “in vitro N-demethylation activity on salutaridine” value in the data set with salutaridine is given as “detected”.

B5: Ar_ORZ22410_co: codon-optimized putative cytochrome P450 A0A1X2IUG5 from Absidia repens (protein, listed as Absidia repens)
chain: MNKLFPVGTSNKKKAVLLSLGATVALICRAIYRIYYVPRSLRHIPSVGYFRLIRSILRREDATTRARTVYGPAIKKGNGIYLANFPITWSVFVSSPIAAKSVLMKTDNFPKSMEIFHALGKENPVVRFFGIDNVAIVNGEKWKKQRKVMNPAFHRAMPVQMFGRLMLKGFKNIEKQDYQVPILDFFQRLTLDALGIAGFGFDFHSVDDPESIWTKTYENVRLGLRSPFSFLFPSMDWLLKYIIPGRKELDKSVDKLNALLMSMAQERRLQVRASIDDNVPDSEKDLLTLMLEAELRGEGTASDEQLRSNLAVFFLAGHETTANTMSFCLYNLAMNKEVQSKARQEVLTVLGDEPVDILPQIDELRQMPYIDMVLKENLRRFGPASMLIARKSQEDFDLNGVFIPKNTPVVVETHALHHNPDVWKNPEQFDPERFAPGGEHETCHEGMAWLPFSSGSRGCLGMNFSLAEQRTFLVMLLRKYEWELPEDSIHRNGVKIQNFQNAAPESLEIKFSSRY
As to B5, the “nororipavine production when oripavine was administered” value in the data set with oripavine [3] is recorded as “capable of producing nororipavine”. In addition, in the data set on thebaine [4], the “activity towards thebaine, converting it to northebaine” value is given as “displayed activity towards thebaine”.
